Results on 41 sequences are retold here after the nanobody polyreactivity screen of Harvey et al. (2022).

The series in a line: yeast display, Sf9 membrane polyspecificity reagent, FACS + sequencing; frameworks hold sequencing errors. Summed up: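 Galactose induction of a Saccharomyces cerevisiae BJ5465 synthetic nanobody display library ran 36–48 hours. The cells were then stained for 1 hour at 4 °C with 10% biotinylated, detergent-solubilized Sf9 membrane reagent, pulled down on streptavidin microbeads and FACS-sorted into low and high (top ~1%) gates on expression and reagent-binding fluorescence. Labels for polyreactivity follow the gate of origin.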
For “QVQLVESGGGLVQAGGSLRLSCAASGSTFWLYAMGWYRQAPGKERELVATISERGGSTYYADSVKGRFTISRDNAKNTVYLQMNSLKPEDTAVYYCAADQFHYPRGRRYDYWGQGTQVTVSS”, the “polyreactivity (PSR sort gate)” value is “low polyreactivity”. Consider “QVQLVESGGGLVQAGGSLRLSCAASGSTFWNYAMGWYRQAPGKERELVASIDSSDGRTYYADSVKGRYTISRDNAKTTVYVQMNSLKPEDTAAYYCAKDAYAVELRPYSKLSSRAVGYWGQGTQVTVSS”, for which the “polyreactivity (PSR sort gate)” value is reported as “low polyreactivity”. Under “QVQLVESGGGLVQAGGSLRLSCAASGSTFWPNAMGWYRQAPGKERELVAGITTSSGSTFYAHSVKGRFTISRDNAKNTVYLQMNSLKPEDTAVYDCNARVRRRRYKYDYWGQGTQVTVSS” stands “high polyreactivity”. Under “QVQLVESGGGLVQAGGSLRLSCAASGSTFWPYALGWYRQAPVKERELVAAITNSGGSTYYADSVKGRFTISRDNAKNTVYLQMNSLKPEDTAVYYCAVRGVIYSYTPVNSYVFWGQGTQVTVSS” stands “low polyreactivity”; under “QVQLVESGGGLVQAGGSLRLSCAASGSTFWPYAMGWYRQAPGKERELVAAISNGGGTKYADSVKGRFTISRDNAKNTVYLQMNSLKPEDTAVYYCAKTLWTGRAWYDYWGQGTQVTVSS”, “high polyreactivity”. Under “QVQLVESGGGLVQAGGSLRLSCAASGSTFWPYAMGWYRQAPGKERELVAAITSSDVNTNYADSVKGRFTISRDNAKNTVYLQMNSLKPEDTAVYYCAADQYQYDPTYGYDYWGQGTQVTVSS” stands “low polyreactivity”; under “QVQLVESGGGLVQAGGSLRLSCAASGSTFWSNPMGWYRQAPGKERELVAAISISDGNTYYADSVKGRFTISRDNAKNTVYLQMNSLKPDDTAVYYCATVGSEDGDPGFDYWGQGTQVTVSS”, “low polyreactivity”; under “QVQLVESGGGLVQAGGSLRLSCAASGSTFWSNVMGWYRQAPGKESELVSAISYGGVTTSYADSVKGRFTISRDNAKNTVYLQKNSLKPEDTAVYYCATDYVGYYFYVSDYWGQGTQVTVSS”, “low polyreactivity”. For “QVQLVESGGGLVQAGGSLRLSCAASGSTFWSYAMGWYRQAPGKEREFVAAISRSGDSTYYADSVKGRFTISRDNAKNTVYLQMNSLNPEDTAVYYCNAKLVRRSYGSYYYTYDYWGQGSQVTVSS”, the “polyreactivity (PSR sort gate)” value was “high polyreactivity”.

With “QVQLVESGGGLVQAGGSLRLSCAASGSTFWSYTMGWYRQAPGKERELVAAISRSGGSTYYADSVKGRFTISRDNAKNTVYLQMNSLKPEDTAVYYCAADDRYGSRYYYWGQGTQVTVSS”, the “polyreactivity (PSR sort gate)” value is “high polyreactivity”. Under “QVQLVESGGGLVQAGGSLRLSCAASGSTFWSYTMGWYRQAPWKERDLVARNTGRGGSTYYADSVKGRFTISRDNEKNTVYLLMNSLKTEDTAVYYCAAGGGRYGFYRFDYWRQGTQVTVSS” stands “low polyreactivity”; under “QVQLVESGGGLVQAGGSLRLSCAASGSTFWTNAMGWYRQAPGKERELVATITYSTGTYADSVKGRFTISRDNAKNTVYLQMNSLKPEDTAVYYCAADFWYRTVYGYFGYVYWGQGTQVTVSS”, “low polyreactivity”. Under “QVQLVESGGGLVQAGGSLRLSCAASGSTFWVNVMGWYRQAPGKERELVAAITTGSSPYYADSVKGRFTISRDNAKNTVYLQMNSLKPEDTAVYYCNVFQGTRYGYWGQGTQVTVSS” stands “low polyreactivity”; under “QVQLVESGGGLVQAGGSLRLSCAASGSTFWWNTMGWYRQAPGKESELVADIRTSGGGTYYADSVKGRFTISRDNAKNTVYLQMNSLKPEDTAVYYCNADPKWEMGSWGQGTQVTVSS”, “low polyreactivity”; under “QVQLVESGGGLVQAGGSLRLSCAASGSTFWYNAMGWYRQAPGKERELVAAISRSGATTYYADSVKGRFTISRDNAKNTVYLQMNSLKPEDTAVYYCNAVISPSSYVRNSDYWGQGTQVTVSS”, “low polyreactivity”. Under “QVQLVESGGGLVQAGGSLRLSCAASGSTFWYNAMGWYRQAPGTEREFVAAISSRGGNTFYADSVKGRFTISRDNAKNTVYLQMNSLKPEDTAVYYCDARFNRPYDYWGQGTQVTVSS” stands “low polyreactivity”.

For “QVQLVESGGGLVQAGGSLRLSCAASGSTFWYNDMGWYRQAPGKETELVASISWSGGDTYYADSVKGRFTISRDNAKNTVYLQMNSLKPEDTAVYYCAKGNNWISRLMDYWGQGTQVTVSS”, the “polyreactivity (PSR sort gate)” value is given as “low polyreactivity”. Then “QVQLVESGGGLVQAGGSLRLSCAASGSTFWYYAMGWYRQAPGKERELVAAISRGGNTYYADSVKGRFTISRDNAKNTVYLQMNSLKPEDTAVYYCAARVHYWYPSTGHHYWGQGTQVTVSS”, with “high polyreactivity”; and “QVQLVESGGGLVQAGGSLRLSCAASGSTFWYYAMGWYRQAPGKERELVAAITSGDSTYYADSVKGRFTISRDNAKNTVYLQMNSLKPEDTAVYYCAADLPWEDGYYFYSGYTEYDYWGQGTQVTVSS”, with “low polyreactivity”. Then “QVQLVESGGGLVQAGGSLRLSCAASGSTFWYYAMGWYRQAPGKERELVADITYSGVSTYYADSVKGRFTISRDNAKNTVYLQMNSLKPEDTAVYYCNADWGSVNGYSGYYYWGQGTQVTVSS”, with “low polyreactivity”; and “QVQLVESGGGLVQAGGSLRLSCAASGSTFWYYTMGWYRQAPGKERELVAAISKSGTNTYYADSVKGRFTISRDQAKNTVYLQMNSLKPEDTAVDYCNALTKTGTPPDYDYWGQGTQVTVSS”, with “high polyreactivity”; and “QVQLVESGGGLVQAGGSLRLSCAASGSTFWYYVMGWYRQAPGKERELVAAISTRGDSTYYADSVKGRFTISRDNAKNTVYLQMNSLKPEETAVYYCAKYRQSSGRVRFDYWGQGTQVTVSS”, with “low polyreactivity”. Then “QVQLVESGGGLVQAGGSLRLSCAASGSTFYANAMGWYIQPPGKERELVAAISRSGGRTYYADSVKGRFTISRDTAKKTVYLQMNSLKTEDNSVYYCAKAYHHSEFDYWGQGTQVTVSS”, with “high polyreactivity”; and “QVQLVESGGGLVQAGGSLRLSCAASGSTFYANAMGWYRQAPGKERELVATINRRGNKYYADSVKGRFTISRDHAKNTVYLQMNSLKPEDTAVYYCAADAWVGWHDEYDYWGQGTQVTVSS”, with “low polyreactivity”; and “QVQLVESGGGLVQAGGSLRLSCAASGSTFYANLMGWYRQAPGKEWEFVAAIDGSGGRTYYADSVKGRFTISRDNAKNTVYLQMNSLKPEVTAVYYCAKKRIVPVIQFGRDYNYWGQGKQVTVSS”, with “high polyreactivity”. For “QVQLVESGGGLVQAGGSLRLSCAASGSTFYANVMGWYRQAPGKERELVAAIRWSGSSTYYADSVKGRFTISRDNAKNTVYLQMNSLKPEDTAVYYCNARYDFSYDYWGQGTQVTVSS”, the “polyreactivity (PSR sort gate)” value is recorded as “low polyreactivity”. Under “QVQLVESGGGLVQAGGSLRLSCAASGSTFYASVMGWYRQAPGKERELVAGITWYGGSTYYADSVKGRFTISRDNAKNTVYLQMNSLKPEDTAVYYCAADYYNTYGYDYCGQGTQVTVSS” stands “low polyreactivity”; under “QVQLVESGGGLVQAGGSLRLSCAASGSTFYAYAMGWYRQAPGKERELVAAISGSGGRTYYADSVKGRFTISRDNAKNTVYLQMNSLKPEDTAVYYCAASLTSRLPDPPRYYWGQGTQVTVSS”, “high polyreactivity”. Then “QVQLVESGGGLVQAGGSLRLSCAASGSTFYAYAMGWYRQAPGKERELVAAISSDGSTNYADSVKGRFTISRDNAKNTVYLQMNSLKPEDTAVYYCAADDNGAWVRMDYWGQGTQVTVSS”, with “low polyreactivity”.

In the case of “QVQLVESGGGLVQAGGSLRLSCAASGSTFYAYAMGWYRQAPGKERELVAGISKRVGRTYYADSVKGRFTISRDNAKNTVYLQMNSLKPEDTAVYYCNADVYAYPATWLDYWGQGTQVTVSS”, the “polyreactivity (PSR sort gate)” value is listed as “high polyreactivity”. Under “QVQLVESGGGLVQAGGSLRLSCAASGSTFYAYTMGWYRQAPGKEREFVAAISKSGGSTYYADSVKGRFTISRDNAKNTVYIQMNSLKPEDTAVYYCAARVYYRYDWGQGTQVTVSS” stands “high polyreactivity”; under “QVQLVESGGGLVQAGGSLRLSCAASGSTFYDNTMGSYRQAPGKERELVAAITGTGGNTYYADSVKGRFTISRDNAKNTVYLQMNSLKPEDTAVYYCNRVPVYYYRYGYWGQGTQVTVSS”, “low polyreactivity”. Then “QVQLVESGGGLVQAGGSLRLSCAASGSTFYDYAMGWYRQAPGKERELVAAISQSGGSTYYADSVKGRFTISRDNAKNTVYLQMNSLKPEDTAVYYCAADSGYSLYDYWGQCTQVTVSS”, with “low polyreactivity”; and “QVQLVESGGGLVQAGGSLRLSCAASGSTFYDYAMGWYRQAPGTEREFVAAISGSAGSTYYADSVKGRFTISRDNAKNTVYLQMNSLKPEDTAVYYCATDYGWEDYNYWGQGTQVTVSS”, with “low polyreactivity”; and “QVQLVESGGGLVQAGGSLRLSCAASGSTFYDYAMGWYRQAPWKERELVAAITSGGSTYADSVKGRFTISRYNAKNTVYLQMNSLKPEDTAVYYCNKDFVVEYWWHHVYVYYYLGDYWGQGTQVTVSS”, with “low polyreactivity”. Under “QVQLVESGGGLVQAGGSLRLSCAASGSTFYENTMGWYRQATGKERELVAAISFRGGSTYYADSVKGRFTISRDNAKNTVYLQMNSLKPEDTAVYYCNADDSPVPSIRFDYWGQGTQVTVSS” stands “low polyreactivity”. Turning to “QVQLVESGGGLVQAGGSLRLSCAASGSTFYEYAMGWYRQAPGKERELVATINWS”, the “polyreactivity (PSR sort gate)” value is on record as “low polyreactivity”. Then “QVQLVESGGGLVQAGGSLRLSCAASGSTFYFNAMGWSRQAPGKERELVAAIDWSGGSTYYADSVKGRFTISRDNAKNTVYLQMNSLKPEDTAVYYCITVPNRARISTLYGYDYWGQGTQVTVSS”, with “low polyreactivity”; and “QVQLVESGGGLVQAGGSLRLSCAASGSTFYFNAMGWYRQAPGKERELVADINYSGTSTYYADSVKGRFTISRDNAKNTVYLQMTSLKPEDTAVYYCAKSLPSSNTSTSYDYWGQGTQVTVSS”, with “low polyreactivity”; and “QVQLVESGGGLVQAGGSLRLSCAASGSTFYFNAMGWYRQAPGKERELVAGIRYSGSSTYYADSVKGRFTISRDNAKNTVYLQMNSLKPEYTAVYYCAAERWWYTVRGYGYWGQGTQVTVSS”, with “high polyreactivity”.

Regarding “QVQLVESGGGLVQAGGSLRLSCAASGSTFYFNAMGWYRQAPGKERELVAGISSGGSTYYADSVKGRFTISRDNAKNTVYLQMNSLKPEDTAVYYCAADSDTFYYTGYDYDYWGQGTQVTVSS”, the “polyreactivity (PSR sort gate)” value was “low polyreactivity”.
